Here are results for one molecule from patent US7871610B2, “Antibodies to Tie1 ectodomain” (Dyax Corp., priority 2003, dated 2011).

In test [1] the target is T1, recombinant human Tie1-Fc (Homo sapiens, UniProt P35590).
T1 construct: selected against the Tie1 extracellular domain fused to human Fc or to a histidine purification tag
T1 sequence (P35590 22-759 limits assumed): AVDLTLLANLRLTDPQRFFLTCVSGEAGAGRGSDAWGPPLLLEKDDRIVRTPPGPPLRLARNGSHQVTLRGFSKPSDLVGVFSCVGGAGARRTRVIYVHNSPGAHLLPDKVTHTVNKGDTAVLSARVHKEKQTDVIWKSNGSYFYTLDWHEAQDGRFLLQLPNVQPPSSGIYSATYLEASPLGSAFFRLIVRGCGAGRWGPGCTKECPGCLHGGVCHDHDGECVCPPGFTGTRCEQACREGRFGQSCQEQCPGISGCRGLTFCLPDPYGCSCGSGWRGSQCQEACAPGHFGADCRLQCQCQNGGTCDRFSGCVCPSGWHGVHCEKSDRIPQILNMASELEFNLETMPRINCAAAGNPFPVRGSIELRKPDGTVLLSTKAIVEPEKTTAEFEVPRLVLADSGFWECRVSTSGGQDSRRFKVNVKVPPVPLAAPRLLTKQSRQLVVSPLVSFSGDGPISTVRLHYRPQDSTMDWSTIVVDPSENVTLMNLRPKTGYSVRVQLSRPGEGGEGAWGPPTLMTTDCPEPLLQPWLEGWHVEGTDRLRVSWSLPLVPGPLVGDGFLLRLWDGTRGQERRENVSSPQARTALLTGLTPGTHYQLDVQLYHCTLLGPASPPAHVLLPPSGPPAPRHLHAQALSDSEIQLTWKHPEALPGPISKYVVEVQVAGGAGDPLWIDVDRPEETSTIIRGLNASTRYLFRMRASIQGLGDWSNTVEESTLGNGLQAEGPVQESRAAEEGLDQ
Briefly: BIAcore, E3 Fabs on recombinant human Tie1-Fc. It counts as binding. The following applies: Fab. As to the method: Recombinant purified human Tie1-Fc antigen (Stock 2.45 mg/ml) was biotinylated using the EZ-link Sulfo-NHS-SS-Biotin (Pierce, Cat. 21331). The reaction was performed for 2 hours on ice in 50 mM sodium carbonate buffer, pH 9.6, in the presence of a 5-fold molar excess of biotinylating agent and was stopped by the addition of Tris-HCl, pH 7.5 (50 mM final concentration) followed by a 1-hour incubation on ice. Samples were then dialyzed against PBS. The antigen was then diluted 1/100 fold in HBS and was then captured onto a streptavidin chip. This was coated to a density of 830RU (resonance units). All analysis was performed in HBS buffer. The parental Fab E3 and germlined E3 Fab were prepared as described above. A stock solution of 0.587 mg/ml (11740 nM) was diluted 1/587 in HBS+BSA to obtain a stock of 20 nM and the germlined Fab E3 0.025 mg/ml (500 nM) was diluted 1/25 in HBS+BSA to obtain a stock of 20 nM. Serial dilutions were made of each Fab preparation to obtain 10 nM, 5 nM, 2.5 nM, and 1.25 nM solutions. For the association phase samples were injected at 30 μl/min for 4 minutes using kinject program. […] All samples were run and analyzed in duplicate.
Sensorgrams were analyzed using the simultaneous ka/kd fitting program with 1:1 model in the BIAEVALUATION™ software 3.1.
(Surface plasmon resonance follows binding to a sensor surface in real time, without labels.)

Test [2] deals with Tie-1. Briefly: Immunohistochemistry of mouse SW480 xenograft tumor sections. Conditions: biotinylated E3 IgG1 10 μg/ml, paraffin sections. As to the method: We determined if antibody E3 binds to mouse endothelial cells in mouse xenographs. Immunohistochemistry was performed with biotinylated E3 IgG1 (a,z allotype) antibody and control antibodies anti-CD31 (endothelial cell specific marker) and anti-PCNA (proliferating cell nuclear antigen). Formalin-fixed tumor tissues from a mouse-xenograph containing SW480 cells (ATCC) were tested for the binding pattern of the human anti-Tie1 antibody E3. 5 μm sections of paraffin embedded tissues were deparaffinized, rehydrated and pretreated with warm the citrate buffer (0.01 M sodium citrate, pH6 at 95° C.) for 45 min. The slides were cooled down in fresh citrate buffer for 20 min and rinsed with distilled water. The slides were hydrogen peroxide treated, (0.3% H2O2 in PBS), and preincubated with PBS, 5% FCS, 5% heat inactivated human serum (HS) for 1 hour. Between antibody incubations slides were washed 3 times 5 minutes in PBS. Biotinylated antibodies E3 and A2-SV were diluted to a concentration of 10 μg/ml in PBS, 10% HS and incubated for 1 hour at RT. Slides were then incubated with an avidin-HRP (Dako) for 30 minutes at room temperature. Staining was detected by AEC (Vector Laboratories, Burlingame) and H2O2. The peroxidase reaction was stopped with water and slides were counter-stained with haematoxylin. The tissues were evaluated for their binding reactivity.

B1: E3: human anti-Tie1 antibody from Fab phage library; HC SEQ ID NO:114, LC SEQ ID NO:116 (antibody, V domains shown)
VH: EVQLLESGGGLVQPGGSLRLSCAASGFTFSMYGMVWVRQAPGKGLEWVSVISPSGGNTGYADSVKGRFTISRDNSKNTLYLQVNSLRAEDTAVYYCARAPRGYSYGYYYWGQGTLVTVSSASTKGPSVFPLAPSSKSTSGG
VL: DIQMTQSPLSLSASVGDRVTITCRASQGIGHYLAWYQQKPGKVPKLLIYTASTLQSGVPSRFSGSGSGTDFTLTINSLQPEDVATYYCQQFNSYPHTFGQGTRLDIK
modifications: Synthetically generated peptide
In the case of B1, the “effect of germlining on binding activity” value in test [1] is “minimal effect on the binding activity”. The “staining pattern in mouse xenograft tumor tissue” value in test [2] is “consistent with staining of mouse endothelial cell Tie-1”.
